In assay [1] the target is T1, peptide 21 (PfCSP residues 101-115) (Plasmodium falciparum).
T1 chain: NPDPNANPNVDPNAN
The assay is described as follows: crystal structure.

The target in assay [2] is T2, Biotinylated junctional peptide NPDP19 (Plasmodium falciparum NF54/3D7).
T2 chain: Biotin-KQPADGNPDPNANPNVDPN
The assay is described as follows: BLI. (BLI is a label-free optical method that tracks binding on a fibre tip over time.)

Assay [3] deals with T2, Biotinylated junctional peptide NPDP19. The assay is described as follows: AlphaScreen or HTRF. (In Alpha technology, singlet oxygen from a donor bead excites a nearby acceptor bead.)
In assay [4] the target is T3, peptide NANP5, biotinylated (Plasmodium falciparum, biotin (position not given)).
T3 chain: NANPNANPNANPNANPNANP
The assay is described as follows: BLI.

In a further assay the target is T4, peptide 21, biotinylated (Plasmodium falciparum NF54/3D7, also: biotin, position not given here).
T4 chain: NPDPNANPNVDPNAN
Nature of the assay: BLI.

Changes are numbered by the printed parent chain. Names and notes keep the numbering of the source. Where no end group is shown, it is not given here. The star is where a group is joined. Biotin = O=C1N[C@H]2[C@H](CS[C@H]2CCCCC(=O)*)N1

B1: iGL-CIS43.D3 Fab (Fab, V domains shown)
VH: QVHLVQSGAEVKKPGASVKVSCKASGYTFTRYAIHWVRQAPGQRLEWMGWIKGGNGNTRYSQKFQDRVTITRDTSASTAYMELSSLRSEDTAVYYCALLTVITPDDAFDIWGQGTMVTVSS
VL: not shown
Consider B1, for which the binding result in assay [1] was “binds”. Also, the Kd in assay [2] worked out at 1.01 nM.

B2: iGL_Core8 with the reversion R58K in the heavy chain (antibody, V domains shown)
VH: B1 VH with H3Q, R31S, G53A, R59K, D66G
VL: not shown
For B2, the binding result in assay [3] was “binds”.

B3: mature CIS43 Fab (Fab, V domains shown)
VH: B1 VH with H3Q, R31S, G53A, A76T, S77T, I102L
VL: not shown
Consider B3, for which the binding result in assay [4] is on record as “binds”; in the assay with peptide 21, biotinylated, “binds”.

B4: iGL_Core8 with the reversion K52N in the heavy chain (antibody, V domains shown)
VH: B1 VH with H3Q, R31S, K52N, G53A, D66G
VL: not shown
Turning to B4, the binding result in assay [3] was “binds”.

B5: iGL_Core8 with the reversion I34M in the heavy chain (antibody, V domains shown)
VH: B1 VH with H3Q, R31S, I34M, G53A, D66G
VL: not shown
Regarding B5, in assay [3], the binding result is recorded as “binds”.

B6: iGL_Core8 with the reversion I98V in the heavy chain (antibody, V domains shown)
VH: B1 VH with H3Q, R31S, G53A, D66G, I102V
VL: not shown
Take B6: in assay [3], the binding result was “binds”.

B7: iGL-CIS43-HL.K28.m42.127 Fab (Fab, V domains shown)
VH: B1 VH with H3Q, R31S, G53A, A107T
VL: not shown
B7: the binding result in assay [1] was “binds”.

B8: iGL_Core8 with the reversion S94T in the light chain (antibody, V domains shown)
VH: B1 VH with H3Q, R31S, G53A, D66G
VL: not shown
For B8, the binding result in assay [3] is listed as “binds”.

B9: iGL-CIS43-HL.K28.m43.151 Fab (Fab, V domains shown)
VH: B1 VH with R31S
VL: not shown
For the molecule B9, the binding result in assay [1] is listed as “binds”.

One may read the Kd as the equilibrium constant for the complex coming apart. Lower therefore signals tighter binding.

Values taken from PMC9087378 (Immunity, 2021).
